From a protein production outcome set (Wang et al. 2014) come the findings set out here.

The series can be described thus: label from the status in PepcDB records.

With “MKTRSSDAEGDSRGKMIAPVGEGNGGRKRKLVQSNEQKNDIQREEDGRAKRRIVQSSDQKNGKILRGIRGCVSPRCSAQTYQSRFSWYEQDIWTYISRFLDGKSLVKLGATNKWFYKIAMEDTVWRFACLRDLQVPVPFPVSSTWIKIYASAFDGSHSYLFRQKEKHIGAFVLDSRTSLLTESLSGRLKFPREGTIERMLQSSGSCLINDIKSGIWIADLQLVRCPVCDLSTCDGTMQTLDARHIELFLSEGYKDGSWDYNLIGSHKLQKNASAACGAIFDLKHLKESSYSGILNLKSWTGESNDSQPKAVIAPHAVAVHTRLQENEGILVKYHTMKAGTDGDIVSIRISQQLL”, the protein production entry is listed as “failed”.
The entry for “MKTSRSSIGKSIFLAATMLATGSAAWAGQAPGALSSPDIPISHHDRVYAAEQFSNTVSVTDPVDNKLLGVIRLGDPQPGNFSPLYKGQVLVHGMGFSPDHKMLAVVSIGSNSVTFIDTATNAVKHTTYIGRSPHEAFFTPDGKEVWVTVRGENYISVIDPQSFEERRRITTPSGPGMQMFSPDGKYAYICSSFNPETDVVAVAEHKIIAKVKQESPFCPNIAVTPDGNQVWFTLKDTGRTQVFNARPPFNPIRTIDTGPITNHVNFAHTARGTFAYVTIGGLNQVKVFRTDDFSQVATIPVGNLPHGVWPSGDGTRIYVGLENADALAAIDTATNSVVANVPIGQAPQAIAYVPGAAPNPDDRQNLQALGVAGQFAHLALASRDGSKDGKAPTSVSLFDQGLIQILQASVTGLEPRQKYVLALAEHGDGSGTLQPLAAFMTNPAGSAIVNAAGPIRQIVDQSAAAARRYLVIASGDVAMPGEAVQIEAQ” is “failed”; for “MKTVLAFGDSLTWGADPATGLRHPVEHRWPDVLEAELAGKAKVHPEGLGGRTTCYDDHAGPACRNGARALEVALSCHMPLDLVIIMLGTNDIKPVHGGRAEAAVSGMRRLAQIVETFIYKPREAVPKLLIVAPPPCVAGPGGEPAGGRDIEQSMRLAPLYRKLAAELGHHFFDAGSVASASPVDGVHLDASATAAIGRALAAPVRDILG” it is “not failed”; for “MKVAVLDFGKTNSKLFVFGQDGGILDERRTQPKWTHQDGFSVLDEAALHDWALGAVTEAVENHGVEGVMVSGHGCTFALVDDAALTHPILDYEQEPPAEIAARIDHRIPDFAETFSPRLPLGFNYGRHMLWVQEVDPDAFAAAKSILGYPQYWSWRLGGRPVSEVSYLGCHSHLWAPRSQDFSSLVDAEGWRGQMPAFARAGAVIGERRLGSSSRPIAIHNGVHDSNAALHAYRLEHHHHHH” it is “not failed”.
As to “MKVDVDEKTYIITMANDITKLYEENKRNLHYSITDPLTGAYNRKYLNDRFDIFIGDYIVLIDLDNFKMINDYEGHNVGDKILCDFVSLLNKELINSTSIIRLGGDEFIVIFSSDVDKNYVYSQLEALRENFLKVFSKYKYLSFSYGVDTVKRNLKLTIVELDKKMYKNKEKNKKKFDKNLEHHHHHH”, the protein production result is “not failed”.
For “MKVEEILEKALELVIPDEEEVRKGREAEEELRRRLDELGVEYVFVGSYARNTWLKGSLEIDVFLLFPEEFSKEELRERGLEIGKAVLDSYEIRYAEHPYVHGVVKGVEVDVVPCYKLKEPKNIKSAVDRTPFHHKWLEGRIKGKENEVRLLKGFLKANGIYGAEYKVRGFSGYLCELLIVFYGSFLETVKNARRWTRRTVIDVAKGEVRKGEEFFVVDPVDEKRNVAANLSLDNLARFVHLCREFMEAPSLGFFKPKHPLEIEPERLRKIVEERGTAVFAVKFRKPDIVDDNLYPQLERASRKIFEFLERENFMPLRSAFKASEEFCYLLFECQIKEISRVFRRMGPQFEDERNVKKFLSRNRAFRPFIENGRWWAFEMRKFTTPEEGVRSYASTHWHTLGKNVGESIREYFEIISGEKLFKEPVTAELCEMMGVKD”, the protein production entry is reported as “not failed”.
“MKVELPQGGYQGLAGDGVVEFRGVPFALPPVGELRFKAPRPLPDSDRSVNADRYPLPSLQVKNPLMGVEDSGEDCLYLNIWVPEGEGPFPVMLWYHGGGYIAGSVSQPLYNGAALAASQKVVVVHAAYRLGAHGFADFATIAPELEADSNLGLRDQVAALEWVNRHIEAFGGRPDRVTLFGESAGGFSVATLMATPRARPLFQAAIVQSGAGDFALAPEEVAKVTSAFVEALPGDGSAADKLRQADPKAWIAAQNQALRTLVKRGLRDTTPQFAMNFQPMVDGDLLPRLPVDAIADGEARDIALMASVCRDEYHFFQYAGPMAGFPSVEELRRFDEAEILRRFQRALPQHGQQALSYYQRTVTPDPQRSNMDWFSAMETDRLFRVPTLRLLDAQAAHRDDTRGLQFTWTSQQFGVPMGACHVIDVPFVFGVTDTPAGMFFTGGGEPARALAAEVQKVWGDFAHGRAVQGPAWKDTRRVRQFGPGDAEAALLDADGEALWADIIPVPGTAKPGQGA”: the protein production entry is given as “not failed”.
The entry for “MKVIETKYNGKLEVAEDRLIAFDQGIPAFEDEKEFVLLPFAAGTPYYTLQSTKTVDLAFIIVNPFSFFPEYRVKLPEATIVQLNITNENDVAIFSLLTVKEPFSETTVNLQAPIVINANKQMGKQLVLGDTAYDRKQPLFQKELVLAKEAK” is “not failed”; for “MKVIGINGSSRKDGNTAILIQTVFEELTKEGIETELIQLSGKNIEGCKACWACHKNRNKQCVITDDFFNECFAKMLVSDGIILGSPVYSAGVTSQMKALIDRASMVLAGNRGLFKHKVGASVVAARRGGAISAFGTLNNFLHSKEMFLVGSSYWNMAYGNAIGEVEQDQEGIDNMKNLGQNMAWILKKIHNS” it is “failed”.
For “MKVINVDVAIIGTGTAGMGAYRAAKKHTDKVVLIEGGAYGTTCARVGCMPSKLLIAAADASYHASQTDLFGIQVDRISVNGKAVMKRIQTERDRFVGFVVESVESFDEQDKIRGFAKFLDEHTLQVDDHSQVIAKRIVIATGSRPNYPEFLAAAGSRLLTNDNLFELNDLPKSVAVFGPGVIGLELGQALSRLGVIVKVFGRSGSVANLQDEEMKRYAEKTFNEEFYFDAKARVISTIEKEDAVEVIYFDKSGQKTTESFQYVLAATGRKANVDKLGLENTSIELDKKNSPLFDELTLQTSVDHIFVAGDANNTLTLLHEAADDGKVAGTNAGAYPVIAQGQRRAPLSVVFTEPQVASVGLSLRQIEDLYADQDAANYVVGQVSFEGQGRSRVMGKNKGLLNVYADRTSGEFLGAEMFGPAAEHIGHLLAWARQQQMTVQAMLTMPFYHPVIEEGLRTALRDAQQKLAIEKHDMNEFIMTHDNAMKLVI”, the protein production result is “not failed”.
To “MKVITSLISSILLKFIHKDFHEIYARMSLLDRFLLLIVHGVDKMVPWHKLPVFLGLTYLEVRRHLHQQYNLLNVGQTPTGIRFDPANYPYRTADGKFNDPFNEGVGSQNSFFGRNCPPVDQKSKLRRPDPMVVATKLLGRKKFIDTGKQFNMIAASWIQFMIHDWIDHLEDTHQIELVAPKEVASKCPLSSFRFLKTKEVPTGFFEIKTGSQNIRTPWWDSSVIYGSNSKTLDRVRTYKDGKLKISEETGLLLHDEDGLAISGDIRNSWAGVSALQALFIKEHNAVCDALKDEDDDLEDEDLYRYARLVTSAVVAKIHTIDWTVQLLKTDTLLAGMRANWYGLLGKKFKDSFGHAGSSILGGVVGMKKPQNHGVPYSLTEDFTSVYRMHSLLPDQLHILDIDDVPGTNKSLPLIQEISMRDLIGRKGEETMSHIGFTKLMVSMGHQASGALELMNYPMWLRDIVPHDPNGQARPDHVDLAALEIYRDRERSVPRYNEFRRSMFMIPITKWEDLTEDEEAIEVLDDVYDGDVEELDLLVGLMAEKKIKGFAISETAFYIFLIMATRRLEADRFFTSDFNETIYTKKGLEWVNTTESLKDVIDRHYPDMTDKWMNSESAFSVWDSPPLTKNPIPLYLRIPS” belongs “failed”.
Regarding “MKVKSISRFFSMKKVTLSFVTLFIGVGTIGSYNQYADASMKTQQTHVTKSSPTQKTTSNFKRSVKDTSVKSRATSIKRATSTKQAISPKTSSTKKTTIAKKSTTVNKTRTTTKTQPTIRKSSTTSTRSKTMPTSVKRTTSHKATTVSPTSKAKISTKTQQSTKSHTTSVKKNTTQLSKTKSPSTSTKSKTVQSSTTKAQPTLSTQVSTTTKAKQFSTPTTSKTDSSKSLVSLASTERKIDKYQSMTQLEKETTEGVDWRKDTKNTGNQVLIVAPHGGSIEQGTTELTKALADKGNYDYYSFEGIRPKNNSELHVTSTHYDDPTLNQMIKNRTATISIHGASGSEEIIYLGGPRSDLRNAIEKQLVARGFTVKVPPEYLGGQNNKNFINREDNNTGVQLELTTALRKAFFKNGDTSTKNRTNKENWTPTMEEFINALYEGINQTYSLEHHHHHH”, the protein production result is listed as “failed”.
The entry for “MKVLETATQVLEWTAHDTQLLVVAALGIALIVVLIAKLKLHPFLALVLGSAFVGLASGVELGKVITNFEDGVGGVLKEVGLLIALGAMLGKLLADSGGANRVVDTLLAKASGNKLVWMITLVAVIIGLPMFFEIGLVLLLPVIVLVTQRSKMKLMRIAIPALAGLSVLHGLVPPHPGPLIAISAVKAELGTTLGLGILVAIPTVIICGPLFSRLAARWVPVDAPAVAGGIDTQHAADLSEVKRQPSFLVTLLTIIFPVVLMLLKALGGIIWPNPETAPAIRIFFDFVGQPLVAMTLAVLLAIVTFGYAVGFTGSRITAKLGESLGPIAAILLIVGAGGGFKQTLIGAGVGDAVKKWAEGANMSVLVLGFIVAVALRLATGSATVATVTAAGIVAPLASSLSPTHAALLALAIGAGSLFLSHVNDAGFWLVKELFGLTVGQTFKTWSVMETLISVVGFGFVMLLSLVL” is “failed”; for “MKVLKPGLLTTVQDIGRTGYQKYGVLASGAMDTVSLRIANLLIGNGENEAGLEITMMGPGPSFHFSKQTLIAVTGADFTLRINDEEAPLWKPVLIKENSTVSFGPCKLGSRAYLAAAGGIEVPAVMESKSTYVRGSIGGLHGRALQKEDELNIGEMSALSQTILSRLSSQLAHTVIGSTDVVSQPWEISVIEDESRHSSAGGISICLLHSRIKNAFSEEAFRVTPQSDRMGYRLKGEPLDLTAPLEMVSAAVSFGAAQMPPAGKPYYPCLQDRQDDWPAIRGIAHIISADLPIVSQIMPGEHVQFEPVSLQEAEALAVEREQHIKELKTRMKMEWLT” it is “not failed”.
To “MKVLLANPRGFCAGVDRAIEIVKRTIDMLGTPIYVRHEVVHNRFVVDDLKQRGAIFVEELHQVPDGATVIFSAHGVSQAVRRQAAQRGLKVFDATCPLVTKVHLDVARHCRTGRDMILIGHAGHPEVEGTMGQWDQERGTGRIYLVENIDDVATLHVAQPHHLAYTTQTTLSVDDTRNIIDALRQRFPTIQGPKNNDICYATQNRQDAVRELARECDLVLVVGSPNSSNSNRLSELAQREGVASYLIDSAAEIDPAWVIDKHHIGVTAGASAPQVLVDGVLARLYELGATSVSEHSGKPESMVFALPKALRLQLVD” belongs “failed”.
For “MKVLLIQPPSSTAFMDKVYMYEPLGLEYLGAGLQEDGHEVLLLDARLEPDFEKAFHSFQPDIVGITGYTNHLNIVKAIAARFKSINPEVFIIVGGHHATVKPADYNDQAIDLIIIGEGVFTLRQVLKHKESLLPFEDIPGLAIPGAVMKFTAERPYTPLDDLPFPDRSLTARYRNHYFSDWMKPIASIRTSLGCFGRCNFCALWSITNGKYLQRNPERIVAELQGIQEEIVFFCDDESMCDTRRMDQLADLIQEAGIRKKYFLYGRVDTIVKHPELFAKWKNIGLIQVFVGFESFSDERLQGLNKNITVAQQEEAVKILNDLNIDIYASFVIDPSFTRQEFTQLIAYTRKLNIAYAALSVLTPLPGTALYEQNKDRLLTHDPKFFDFMHTVLPTALPLKQFYSEYARTLMKATPIPRYFRFIAKFDRQRRLSTMKELYGVVGDVRKGYQWHQAKES”, the protein production entry is “failed”.
